Test results: IntAct's records for PubMed 23612611

B1: E3 ubiquitin-protein ligase CHIP (Mus musculus), Q9WUD1 (parent)
chain: MKGKEEKEGGARLGTGGGGSPDKSPSAQELKEQGNRLFVGRKYPEAAACYGRAITRNPLVAVYYTNRALCYLKMQQPEQALADCRRALELDGQSVKAHFFLGQCQLEMESYDEAIANLQRAYSLAKEQRLNFGDDIPSALRIAKKKRWNSIEERRIHQESELHSYLTRLIAAERERELEECQRNHEGHEDDGHIRAQQACIEAKHDKYMADMDELFSQVDEKRKKRDIPDYLCGKISFELMREPCITPSGITYDRKDIEEHLQRVGHFDPVTRSPLTQEQLIPNLAMKEVIDAFISENGWVEDY
partner: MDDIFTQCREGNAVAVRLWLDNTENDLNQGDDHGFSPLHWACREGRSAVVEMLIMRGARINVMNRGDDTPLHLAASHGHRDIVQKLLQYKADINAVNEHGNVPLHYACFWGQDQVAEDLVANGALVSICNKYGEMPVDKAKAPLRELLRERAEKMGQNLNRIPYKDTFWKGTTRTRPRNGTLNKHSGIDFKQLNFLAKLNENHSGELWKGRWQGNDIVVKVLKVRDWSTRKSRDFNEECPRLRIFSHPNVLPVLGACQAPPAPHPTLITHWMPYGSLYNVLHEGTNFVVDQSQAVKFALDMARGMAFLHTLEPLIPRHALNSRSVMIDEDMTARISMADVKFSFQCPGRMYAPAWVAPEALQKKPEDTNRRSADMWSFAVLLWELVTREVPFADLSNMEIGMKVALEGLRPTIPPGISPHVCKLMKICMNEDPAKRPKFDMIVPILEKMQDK

Variants of: B1
Settings: with ilk_mouse Ilk

| effect of a mutation on the interaction | Variant |
| --- | --- |
| decreasing interaction | K31A |
